Each block holds one binder with its values, some of them ahead of it.
What was measured:
[1] = target: Full-length, wild type recombinant human TSG-6 (human, UniProt P98066 18-277); assay: SPR
[2] = target: Isolated Link module of human TSG-6 (Link_TSG6) (human, UniProt P98066 36-129); assay: SPR
Isolated Link module of human TSG-6 (Link_TSG6), sequence (P98066 36-129): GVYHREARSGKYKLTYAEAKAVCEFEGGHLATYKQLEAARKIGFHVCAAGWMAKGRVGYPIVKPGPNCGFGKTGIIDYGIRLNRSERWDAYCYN

Full-length, wild type recombinant human TSG-6, sequence (P98066 18-277): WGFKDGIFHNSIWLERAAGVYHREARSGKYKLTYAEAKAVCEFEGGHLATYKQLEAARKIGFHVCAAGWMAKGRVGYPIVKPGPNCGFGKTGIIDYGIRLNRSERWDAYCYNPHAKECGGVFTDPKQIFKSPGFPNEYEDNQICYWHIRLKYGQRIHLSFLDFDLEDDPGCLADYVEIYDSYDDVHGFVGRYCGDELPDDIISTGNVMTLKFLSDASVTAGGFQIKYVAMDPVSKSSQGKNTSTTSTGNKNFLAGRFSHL

Kd [1]: 2.11 µM
koff [1]: 0.0014 s⁻¹
kon [1]: 640 M⁻¹ s⁻¹
B1: CXCL8_T (K64A/K67A/R68A) mutant (ligand)
chain: SAKELRCQCIKTYSKPFHPKFIKELRVIESGPHCANTEIIVKLSDGRELCLDPKENWVQRVVEAFLAAAENS
modifications: 72-residue mature form by convention (mature numbering +27 = precursor); monomer/dimer equilibrium

Kd [2]: 0.002 µM
koff [2]: 0.00011 s⁻¹
kon [2]: 57000 M⁻¹ s⁻¹
B2: CCL5 (ligand, UniProt P13501 24-91, looked up)
chain: SPYSSDTTPCCFAYIARPLPRAHIKEYFYTSGKCSNPAVVFVTRKNRQVCANPEKKWVREYINSLEMS

Kd [1]: 0.0164 µM
koff [1]: 0.00011 s⁻¹
kon [1]: 6400 M⁻¹ s⁻¹
B3: CXCL11 (ligand, UniProt O14625 22-94, looked up)
chain: FPMFKRGRCLCIGPGVKAVKVADIEKASIMYPSNNCDKIEVIITLKENKGQRCLNPKSKQARLIIKKVERKNF

— PMC3988464 (Journal of immunology (Baltimore, Md. : 1950), 2014)
